Laboratory results from article PMC11937023.

Target: endogenous CD64 (FcγRI) on primary human myeloid cells (human (endogenous in primary human monocytes)) (UniProt P12314)
UniProt P12314, sequence (P12314 16-374): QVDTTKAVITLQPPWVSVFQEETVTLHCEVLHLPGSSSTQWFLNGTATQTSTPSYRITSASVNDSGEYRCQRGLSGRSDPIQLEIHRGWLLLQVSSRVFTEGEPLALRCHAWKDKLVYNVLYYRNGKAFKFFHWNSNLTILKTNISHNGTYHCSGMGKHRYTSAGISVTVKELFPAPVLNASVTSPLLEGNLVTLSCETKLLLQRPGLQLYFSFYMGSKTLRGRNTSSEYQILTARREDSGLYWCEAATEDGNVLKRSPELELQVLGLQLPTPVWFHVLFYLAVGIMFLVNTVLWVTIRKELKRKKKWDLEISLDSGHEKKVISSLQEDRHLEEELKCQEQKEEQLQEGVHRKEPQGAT

Row | IC50 for inhibiting IL-23 signaling (luciferase in IL-23 reporter cells) in co-culture with R848-stimulated, IFNγ-primed CD64+ THP-1 cells, 16 hours [pM] | Substance
1 | 92 | guselkumab (antibody)
2 | 477 | guselkumab modified to contain LALA mutations in the Fc domain (antibody)
